Experimental data reported in patent US7462701.

Target: T1, Gly-Asp-Asp-Asp-Asp-Lys-β-naphthylamide
T1 chain: GDDDDK

B1: CBM-enterokinase produced transiently in lettuce and purified on cellulose (protein)
chain: MVATAKYGTPVIDGEIDEIWNTTEEIETKAVAMGSLDKNATAKVRVLWDENYLYVLAIVKDPVLNKDNSNPWEQDSVEIFIDENNHKTGYYEDDDAQFRVNYMNEQTFGTGGSPARFKTAVKLIEGGYIVEAAIKWKTIKPTPNTVIGFNIQVNDANEKGQRVGIISWSDPTNNSWRDPSKFGNLRLIK
Enterokinase activity (rate of β-naphthylamine formation): Enterokinase activity was measured to be 442.7 cps/min/µg compared to blank 0.0001 cps/min/µg
